{"source": "the Immune Epitope Database (IEDB)", "data": [{"target": "HLA-A*01:01", "experiment": "IEDB peptide-MHC binding, purified MHC/competitive/radioactivity; ≥ and ≤ were set here for values at or beyond the usual limits of such assays", "details": "source organism: unidentified", "units": {"IC50": "nM"}, "values": [{"sequence": "ADTDSPLRY", "IC50": 32}, {"sequence": "DKDGCMVEQY", "IC50": 10000}, {"sequence": "EKPHSEAGTAF", "IC50": 10000}, {"sequence": "ETESQQIRY", "IC50": 30}, {"sequence": "GCLDTAQRNLY", "IC50": 201}, {"sequence": "GLELSGCIVY", "IC50": 5130}, {"sequence": "LVIDNGSGMCKG", "IC50": 26600}, {"sequence": "PHSPALQPI", "IC50": 1710}]}, {"target": "HLA-A*03:01", "experiment": "IEDB peptide-MHC binding, purified MHC/competitive/radioactivity; ≥ and ≤ were set here for values at or beyond the usual limits of such assays", "details": "source organism: unidentified", "units": {"IC50": "nM"}, "values": [{"sequence": "ALSPVLIPR", "IC50": 4.8}, {"sequence": "AVYEGHVSCVKG", "IC50": 12300}, {"sequence": "GATCELPLQK", "IC50": 13100}, {"sequence": "GFQNALLVR", "IC50": 8480}, {"sequence": "GITCPQVLIQK", "IC50": 819}, {"sequence": "GSTCIYGGAPK", "IC50": 666}, {"sequence": "GVVCPVSDILYK", "IC50": 202}, {"sequence": "IISIVTGLK", "IC50": 14}, {"sequence": "KISFPIIAK", "IC50": 0.78}, {"sequence": "LDAGLKKQFYK", "IC50": 960}, {"sequence": "LNDRGGSVIK", "IC50": 10000}, {"sequence": "NTCQDAAIVGYK", "IC50": 1310}, {"sequence": "PSVGPVLGR", "IC50": 2180}, {"sequence": "QDKVKTLTGK", "IC50": 10000}, {"sequence": "QFLEENTNILK", "IC50": 18600}, {"sequence": "QTALVEIIK", "IC50": 2720}, {"sequence": "RAAAPPLPR", "IC50": 175}, {"sequence": "RAAPPPPPR", "IC50": 56}, {"sequence": "RAVPGPPAR", "IC50": 372}, {"sequence": "RIKFSDDRVCKG", "IC50": 25700}, {"sequence": "RLADKSVLVCKG", "IC50": 343}, {"sequence": "RSLTGILGK", "IC50": 238}, {"sequence": "RTGVPPTIR", "IC50": 2590}, {"sequence": "RVFPSNVICKG", "IC50": 1830}, {"sequence": "SLFSTSSKL", "IC50": 8740}, {"sequence": "STLTDSLVCGK", "IC50": 31}, {"sequence": "SVRELNFTK", "IC50": 119}]}, {"target": "HLA-B*07:02", "experiment": "IEDB peptide-MHC binding, purified MHC/competitive/radioactivity; ≥ and ≤ were set here for values at or beyond the usual limits of such assays", "details": "source organism: unidentified", "units": {"IC50": "nM"}, "values": [{"sequence": "APRRPTQGTVTF", "IC50": 4.3}, {"sequence": "FPRVSTPLA", "IC50": 98}, {"sequence": "GVWEEVGCAKG", "IC50": 266}, {"sequence": "LGPRAAAAGAL", "IC50": 33}, {"sequence": "LPPPARPPI", "IC50": 111}, {"sequence": "LPRGGSVLVTCG", "IC50": 554}, {"sequence": "NPRGARVIAL", "IC50": 0.96}, {"sequence": "PGREAVSKL", "IC50": 11500}, {"sequence": "PGRGARRLLALV", "IC50": 713}, {"sequence": "PKASSGSFSL", "IC50": 11300}, {"sequence": "PLRDARVSDL", "IC50": 8490}, {"sequence": "PSTLNVGTL", "IC50": 10000}, {"sequence": "PVEKNTVEL", "IC50": 9210}, {"sequence": "PVRPAAAAATAL", "IC50": 3230}, {"sequence": "RPRWGAAAS", "IC50": 3.6}, {"sequence": "SPLAASKECAV", "IC50": 367}, {"sequence": "VPAQSRPCVG", "IC50": 4590}, {"sequence": "WSVMDQDSL", "IC50": 10000}]}, {"target": "HLA-B*27:05", "experiment": "IEDB peptide-MHC binding, purified MHC/competitive/radioactivity; ≥ and ≤ were set here for values at or beyond the usual limits of such assays", "details": "source organism: unidentified", "units": {"IC50": "nM"}, "values": [{"sequence": "AHKEIHQQL", "IC50": 83}, {"sequence": "ARCGGALLAL", "IC50": 5.3}, {"sequence": "ARVKEVEEMCKG", "IC50": 3170}, {"sequence": "ERAGPLSGKKF", "IC50": 16}, {"sequence": "GKLCQHIIKR", "IC50": 5760}, {"sequence": "GRFEVGKKICLG", "IC50": 32}, {"sequence": "GRNKLLQSW", "IC50": 10000}, {"sequence": "GRVCSNRHGLIR", "IC50": 657}, {"sequence": "LKRDKLFEK", "IC50": 10000}, {"sequence": "PKLLGPLSL", "IC50": 27600}, {"sequence": "PRGSGGIGL", "IC50": 336}, {"sequence": "PRPRGGSDL", "IC50": 466}, {"sequence": "RGLASPPPVR", "IC50": 833}, {"sequence": "RRNDKQLCIG", "IC50": 108}, {"sequence": "RRVSQGLLGK", "IC50": 1.6}, {"sequence": "RRVYLEGRCVG", "IC50": 24}, {"sequence": "RRYNGGVGRCQ", "IC50": 16}, {"sequence": "TRLVLDPVR", "IC50": 241}, {"sequence": "TRSTGLLGVK", "IC50": 1520}, {"sequence": "VRSPGATASSL", "IC50": 986}]}]}
